The values that follow come from US7125658B2, “Small protein that interacts with a ribonucleotide reductase subunit and uses thereof” (The Trustees of Columbia University in the City of New York, priority 1998, dated 2006).

In this test the target is T1, yeast Rnr1p (Saccharomyces cerevisiae, UniProt P21524).
T1 construct: made in house; host or cells: E. coli BL21 (DE3), pET3a
T1 sequence (P21524 1-888): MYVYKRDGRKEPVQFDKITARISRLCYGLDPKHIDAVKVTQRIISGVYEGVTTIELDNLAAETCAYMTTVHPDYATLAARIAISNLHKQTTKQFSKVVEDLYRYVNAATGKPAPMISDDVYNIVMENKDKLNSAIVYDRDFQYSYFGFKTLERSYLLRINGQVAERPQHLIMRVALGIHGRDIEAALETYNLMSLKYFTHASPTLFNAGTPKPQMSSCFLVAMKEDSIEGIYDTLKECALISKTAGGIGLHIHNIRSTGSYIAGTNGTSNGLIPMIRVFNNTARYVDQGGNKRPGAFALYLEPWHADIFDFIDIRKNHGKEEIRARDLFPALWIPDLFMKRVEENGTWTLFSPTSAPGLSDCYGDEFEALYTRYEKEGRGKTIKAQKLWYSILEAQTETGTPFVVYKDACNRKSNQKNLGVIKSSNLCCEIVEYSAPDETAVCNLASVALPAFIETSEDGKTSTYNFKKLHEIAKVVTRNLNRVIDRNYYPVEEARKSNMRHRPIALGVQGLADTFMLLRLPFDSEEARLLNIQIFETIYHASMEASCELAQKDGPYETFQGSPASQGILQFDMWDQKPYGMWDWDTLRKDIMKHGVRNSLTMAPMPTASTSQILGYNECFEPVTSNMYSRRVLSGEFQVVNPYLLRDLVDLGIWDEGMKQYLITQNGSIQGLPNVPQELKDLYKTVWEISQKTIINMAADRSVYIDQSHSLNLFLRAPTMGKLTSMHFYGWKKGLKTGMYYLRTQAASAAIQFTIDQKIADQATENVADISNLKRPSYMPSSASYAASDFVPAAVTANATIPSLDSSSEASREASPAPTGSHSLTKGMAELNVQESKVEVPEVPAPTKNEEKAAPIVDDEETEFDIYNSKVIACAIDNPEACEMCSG
Nature of the test: sucrose gradient centrifugation of Rnr1p with Sml1p. The test is classed as binding. The following applies: 500 μg Rnr1p, 90 μg Sml1 protein, 0.1 mM dTTP. The method, then:
FIG. 11 Sucrose gradient centrifugation of yeast Rnr1p in the absence or in the presence of dTTP, with or without Sml1p. Sedimentation (from the right to the left) was performed as described in Materials and Methods. Catalase (s20,w=11.4 S) sedimented in fraction 14 (arrow). Thick line, Rnr1 protein sedimented alone without dTTP or Sml1p. The two peaks represent the dimer (fraction 21) and monomer (fraction 25) positions in the gradient. Hatched line, Rnr1p sedimented in the presence of dTTP. Most of the material now sedimented as tetramers (fraction 5) or dimers (fraction 21). Note that the small peak sedimenting at fraction 26 represents an impurity in the Rnr1p preparation (the band just below the R1 band in the gel insert). The sedimentation of this material is not affected by dTTP. […]
Sucrose gradient centrifugation. […] Aliquots of each fraction were removed for spectrophotometric assay of catalase activity (20); protein concentration as determined by the Bradford method (21); or SDS-PAGE analysis.
Interaction between yeast Rnr1 protein and Sml1 protein assayed by sucrose gradient centrifugation. […] To test if Sml1p binding to the Rnr1p might interfere with Rnr1p dimer formation and thereby inhibit RNR activity, we preincubated Rnr1p and Sml1p in the presence of the allosteric effector dTTP; we then analyzed the mixture on a sucrose gradient (FIG. 11). […]

B1: Sml1p: 104 amino acid yeast protein encoded by YML058w (SML1) that binds Rnr1 and inhibits ribonucleotide reductase; recombinant, expressed in E. coli (protein)
chain: MQNSQDYFYAQNRCQQQQAPSTLRTVTMAEFRRVPLPPMAEVPMLSTQNSMGSSASASASSLEMWEKDLEERLNSIDHDMNNNKFGSGELKSMFNQGKVEEMDF
With B1, the “effect on Rnr1p monomer/dimer equilibrium” value is “did not influence the monomer/dimer equilibrium”.
